Data taken from article PMC10691330.

What was measured:
Test in all cases: packaging into virions
[1] = biological target: HIV-1 M capsid protein (p24) (HIV-1 group M)
[2] = biological target: HIV-1 N capsid protein (p24) (HIV-1 group N)
[3] = biological target: HIV-1 O capsid protein (p24) (HIV-1 group O)
[4] = biological target: HIV-1 P capsid protein (p24) (HIV-1 group P)

Sequence of HA-tagged cyclophilin A (CYPA-HA) (P62937 whole entry): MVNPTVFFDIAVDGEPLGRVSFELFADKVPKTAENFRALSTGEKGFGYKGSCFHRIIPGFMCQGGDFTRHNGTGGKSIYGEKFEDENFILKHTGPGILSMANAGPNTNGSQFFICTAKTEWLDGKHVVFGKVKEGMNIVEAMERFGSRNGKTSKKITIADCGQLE

“HA-tagged cyclophilin A (CYPA-HA) (from UniProt P62937 1-165) (natural protein)” gave a percent reduction of virion-associated CYPA by 1 µM CsA [1] of 40%, a percent reduction of virion-associated CYPA by 1 µM CsA [2] of 70% and a percent reduction of virion-associated CYPA by 1 µM CsA [3] of 70%. It also gave a percent reduction of virion-associated CYPA by 1 µM CsA [4] of 70%.
